One block for each substance: values may come before it.
Columns and labels:
[1] = biological target: recombinant UBE3A protein (Homo sapiens (Human)) (UniProt Q05086); assay: 3-step Simoa; capture MS 2F6; UBE3A 0.01 ng/ml
[2] = biological target: recombinant UBE3A protein (Homo sapiens (Human)) (UniProt Q05086); assay: 2-step Simoa; capture MS 3E5; UBE3A 0.01 ng/ml
[3] = biological target: recombinant UBE3A protein (Homo sapiens (Human)) (UniProt Q05086); assay: 3-step Simoa; capture MS 3E5; UBE3A 0.01 ng/ml
[4] = biological target: recombinant UBE3A protein (Homo sapiens (Human)) (UniProt Q05086); assay: Simoa head-to-head, Table 10; capture GTX; UBE3A 0.032 ng/ml
[5] = biological target: recombinant UBE3A protein (Homo sapiens (Human)) (UniProt Q05086); assay: Simoa head-to-head, Table 10; capture GTX; UBE3A 0.16 ng/ml
[6] = biological target: recombinant UBE3A protein (Homo sapiens (Human)) (UniProt Q05086); assay: Simoa head-to-head, Table 10; capture GTX; UBE3A 20.0 ng/ml
[7] = biological target: recombinant UBE3A protein (Homo sapiens (Human)) (UniProt Q05086); assay: 3-step Simoa; capture GTX; UBE3A 1.95 ng/ml
[8] = biological target: recombinant UBE3A protein (Homo sapiens (Human)) (UniProt Q05086); assay: Simoa head-to-head, Table 10; capture GTX; UBE3A 500 ng/ml
[9] = biological target: recombinant UBE3A protein (Homo sapiens (Human)) (UniProt Q05086); assay: 2-step Simoa; capture MS 3E5; UBE3A 10 ng/ml
[10] = biological target: recombinant UBE3A protein (Homo sapiens (Human)) (UniProt Q05086); assay: 3-step Simoa; capture MS 3E5; UBE3A 1 ng/ml
[11] = biological target: recombinant UBE3A protein (Homo sapiens (Human)) (UniProt Q05086); assay: 2-step Simoa; capture MS 3E5; UBE3A 1 ng/ml
[12] = biological target: recombinant UBE3A protein (Homo sapiens (Human)) (UniProt Q05086); assay: Simoa head-to-head, Table 10; capture GTX; UBE3A 100 ng/ml
[13] = biological target: recombinant UBE3A protein (Homo sapiens (Human)) (UniProt Q05086); assay: 3-step Simoa; capture MS 3E5; UBE3A 10 ng/ml
[14] = biological target: recombinant UBE3A protein (Homo sapiens (Human)) (UniProt Q05086); assay: 2-step Simoa; capture GTX; UBE3A 0.1 ng/ml
[15] = biological target: recombinant UBE3A protein (Homo sapiens (Human)) (UniProt Q05086); assay: Simoa head-to-head, Table 10; capture GTX; UBE3A 0.80 ng/ml
[16] = biological target: recombinant UBE3A protein (Homo sapiens (Human)) (UniProt Q05086); assay: 3-step Simoa; capture MS 3E5; UBE3A 0.1 ng/ml
[17] = biological target: recombinant UBE3A protein (Homo sapiens (Human)) (UniProt Q05086); assay: Simoa head-to-head, Table 10; capture GTX; UBE3A 4.00 ng/ml
[18] = biological target: recombinant UBE3A protein (Homo sapiens (Human)) (UniProt Q05086); assay: Simoa head-to-head, Table 10; capture MS 2F6; UBE3A 0.80 ng/ml
[19] = biological target: recombinant UBE3A protein (Homo sapiens (Human)) (UniProt Q05086); assay: Simoa; capture GTX; SBG 150 pm; UBE3A 4.00 ng/ml
[20] = biological target: recombinant UBE3A protein (Homo sapiens (Human)) (UniProt Q05086); assay: Simoa; capture GTX; 3E5 0.8 ug/ml; UBE3A 0.800 ng/ml
[21] = biological target: recombinant UBE3A protein (Homo sapiens (Human)) (UniProt Q05086); assay: Simoa; capture GTX; SBG 150 pm; UBE3A 0.00640 ng/ml
[22] = biological target: recombinant UBE3A protein (Homo sapiens (Human)) (UniProt Q05086); assay: Simoa; capture GTX; SBG 75 pm; UBE3A 0.0320 ng/ml

UniProt Q05086, sequence (Q05086 whole entry): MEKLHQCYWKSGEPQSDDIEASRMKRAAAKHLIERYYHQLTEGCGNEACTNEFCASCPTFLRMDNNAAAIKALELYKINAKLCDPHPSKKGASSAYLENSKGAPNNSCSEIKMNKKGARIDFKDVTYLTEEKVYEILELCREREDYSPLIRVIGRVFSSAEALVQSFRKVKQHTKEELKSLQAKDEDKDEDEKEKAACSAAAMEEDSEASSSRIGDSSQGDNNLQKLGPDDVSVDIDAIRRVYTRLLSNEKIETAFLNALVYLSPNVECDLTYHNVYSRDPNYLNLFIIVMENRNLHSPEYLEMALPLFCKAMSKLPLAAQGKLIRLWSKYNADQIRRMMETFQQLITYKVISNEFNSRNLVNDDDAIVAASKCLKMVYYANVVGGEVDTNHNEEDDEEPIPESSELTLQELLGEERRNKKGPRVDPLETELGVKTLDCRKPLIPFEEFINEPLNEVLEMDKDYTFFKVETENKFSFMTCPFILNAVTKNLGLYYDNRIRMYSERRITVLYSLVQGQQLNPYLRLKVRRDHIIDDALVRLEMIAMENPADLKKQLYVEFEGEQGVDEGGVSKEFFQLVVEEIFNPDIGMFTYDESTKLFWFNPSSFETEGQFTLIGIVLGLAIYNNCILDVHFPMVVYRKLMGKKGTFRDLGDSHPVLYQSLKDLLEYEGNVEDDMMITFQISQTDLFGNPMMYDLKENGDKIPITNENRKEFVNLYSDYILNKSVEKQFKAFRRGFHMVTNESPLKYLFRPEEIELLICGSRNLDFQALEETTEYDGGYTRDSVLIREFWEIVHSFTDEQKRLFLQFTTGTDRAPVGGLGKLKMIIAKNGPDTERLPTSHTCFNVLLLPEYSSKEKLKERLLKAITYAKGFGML

AEB1 [1]: 0.0086
AEB2 [1]: 0.0101
Ave AEB [1]: 0.0093
Signal to Background [1]: 1.07
AEB1 [2]: 0.0065
AEB2 [2]: 0.007
Ave AEB [2]: 0.0068
Signal to Background [2]: 0.908
AEB1 [3]: 0.0038
AEB2 [3]: 0.0032
Ave AEB [3]: 0.0035
Signal to Background [3]: 1.05
AEB1 [4]: 0.0035
AEB2 [4]: 0.0027
Ave AEB [4]: 0.0031
Signal to Background [4]: 1.49
AEB1 [5]: 0.0038
AEB2 [5]: 0.004
Ave AEB [5]: 0.0039
Signal to Background [5]: 1.88
AEB1 [6]: 0.132
AEB2 [6]: 0.131
Ave AEB [6]: 0.132
Signal to Background [6]: 63.2
AEB1 [7]: 0.0052
AEB2 [7]: 0.0042
Ave AEB [7]: 0.0047
Signal to Background [7]: 1.44
AEB1 [8]: 0.282
AEB2 [8]: 0.309
Ave AEB [8]: 0.296
Signal to Background [8]: 142
AEB1 [9]: 0.15
AEB2 [9]: 0.14
Ave AEB [9]: 0.145
Signal to Background [9]: 19.5
AEB1 [10]: 0.004
AEB2 [10]: 0.0047
Ave AEB [10]: 0.0044
Signal to Background [10]: 1.31
AEB1 [11]: 0.0227
AEB2 [11]: 0.0226
Ave AEB [11]: 0.0226
Signal to Background [11]: 3.04
AEB1 [12]: 0.293
AEB2 [12]: 0.288
Ave AEB [12]: 0.291
Signal to Background [12]: 140
AEB1 [13]: 0.0157
AEB2 [13]: 0.0129
Ave AEB [13]: 0.0143
Signal to Background [13]: 4.29
AEB1 [14]: 0.0089
AEB2 [14]: 0.0108
Ave AEB [14]: 0.0098
Signal to Background [14]: 1.33
AEB1 [15]: 0.0085
AEB2 [15]: 0.0124
Ave AEB [15]: 0.0105
Signal to Background [15]: 5.03
AEB1 [16]: 0.0026
AEB2 [16]: 0.0025
Ave AEB [16]: 0.0025
Signal to Background [16]: 0.765
AEB1 [17]: 0.0402
AEB2 [17]: 0.0398
Ave AEB [17]: 0.04
Signal to Background [17]: 19.2
Substance: NB500-240 (Novus) (antibody)

AEB1 [18]: 0.0353
AEB2 [18]: 0.037
Ave AEB [18]: 0.0361
Signal to Background [18]: 2.67
AEB1 [4]: 0.031
AEB2 [4]: 0.0329
Ave AEB [4]: 0.0319
Signal to Background [4]: 1.41
AEB1 [19]: 0.907
AEB2 [19]: 0.938
AEB3 [19]: 0.927
Average AEB [19]: 0.924
Signal to Background [19]: 69.7
AEB1 [5]: 0.0558
AEB2 [5]: 0.0571
Ave AEB [5]: 0.0564
Signal to Background [5]: 2.48
AEB1 [6]: 2.26
AEB2 [6]: 2.45
Ave AEB [6]: 2.35
Signal to Background [6]: 104
AEB1 [8]: 12.3
AEB2 [8]: 11.6
Ave AEB [8]: 11.9
Signal to Background [8]: 526
AEB1 [20]: 0.589
AEB2 [20]: 0.605
AEB3 [20]: 0.615
Average AEB [20]: 0.603
Signal to Background [20]: 4.92
AEB1 [12]: 4.3
AEB2 [12]: 4.08
Ave AEB [12]: 4.19
Signal to Background [12]: 184
AEB1 [21]: 0.0136
AEB2 [21]: 0.0149
AEB3 [21]: 0.014
Average AEB [21]: 0.0142
Signal to Background [21]: 1.07
AEB1 [22]: 0.0091
AEB2 [22]: 0.0117
AEB3 [22]: 0.0116
Average AEB [22]: 0.0108
Signal to Background [22]: 2.47
AEB1 [15]: 0.144
AEB2 [15]: 0.14
Ave AEB [15]: 0.142
Signal to Background [15]: 6.24
AEB1 [17]: 0.361
AEB2 [17]: 0.362
Ave AEB [17]: 0.361
Signal to Background [17]: 15.9
Substance: anti-UBE3A antibody 3E5 (SAB1404508-100 ug, Millipore-Sigma)

AEB1 [1]: 0.0162
AEB2 [1]: 0.0191
Ave AEB [1]: 0.0176
Signal to Background [1]: 0.94
AEB1 [2]: 0.129
AEB2 [2]: 0.134
Ave AEB [2]: 0.132
Signal to Background [2]: 0.931
AEB1 [3]: 0.0515
AEB2 [3]: 0.05
Ave AEB [3]: 0.0508
Signal to Background [3]: 0.946
AEB1 [9]: 0.407
AEB2 [9]: 0.385
Ave AEB [9]: 0.396
Signal to Background [9]: 2.8
AEB1 [10]: 0.0655
AEB2 [10]: 0.0625
Ave AEB [10]: 0.064
Signal to Background [10]: 1.19
AEB1 [11]: 0.159
AEB2 [11]: 0.165
Ave AEB [11]: 0.162
Signal to Background [11]: 1.15
AEB1 [13]: 0.151
AEB2 [13]: 0.145
Ave AEB [13]: 0.148
Signal to Background [13]: 2.77
AEB1 [14]: 0.0525
AEB2 [14]: 0.0487
Ave AEB [14]: 0.0506
Signal to Background [14]: 1
AEB1 [16]: 0.0546
AEB2 [16]: 0.06
Ave AEB [16]: 0.0573
Signal to Background [16]: 1.07
Substance: GTX101092 (GeneTex) (antibody)

— patent US12467929
